The conditions of data set [1]: simulated gi fluid.
Method: (§1) Nutritive polypeptide half-life during simulated digestion. One metric for quantifying the breakdown of polypeptides from an intact form to smaller peptides is the intact half-life. In this experiment the nutritive polypeptide was exposed to a series of proteases that are active in the stomach (pepsin) and intestine (trypsin and chymotrypsin), and the presence of intact protein was measured over time. Specifically, the nutritive polypeptide was first treated at a concentration of 2 g/L with simulated gastric fluid (SGF) (0.03 M NaCl, titrated with HCl to pH 1.5 with a final pepsin: polypeptide ratio of 1:20 w/w) at 37° C. Time points were sampled from the reaction and quenched by addition of 0.2 M Na2CO3. […] Time points were sampled from the reaction and quenched by addition of Trypsin/Chymotrypsin Inhibitor (Sigma) solution until 240 min.
(§2) Time point samples were analyzed for intact protein by chip electrophoresis, polyacrylamide gel electrophoresis, or western blot. For chip electrophoresis (Labchip GX II), samples were analyzed using a HT Low MW Protein Express LabChip® Kit (following the manufacturer's protocol). A protein ladder was loaded every 12 samples for molecular weight determination (kDa) and quantification. For polyacrylamide gel electrophoresis, samples (1 μg) were separated on a NuPAGE® Novex® Bis-Tris Precast gel (Life Technologies) according to the manufacturer's protocol. The gel was stained using SimplyBlue™ SafeStain (Invitrogen) and imaged using a Chemidoc XRS+ (BioRad) or transferred onto nitrocellulose membranes using the iBlot® Dry Blotting System (Life Technologies) and iBlot® Western Detection Kit (Life Technologies) according to the manufacturer's protocol. Proteins were detected by blotting with Anti-His [C-term]-HRP antibody diluted 3:5000 in Blok™-PO Blocking Buffer using the SNAP i.d.® Protein Detection System (Millipore) according to the manufacturer's protocol. Blots were treated with Luminata Classico Western HRP Substrate (Millipore) according to the manufacturer's protocol and imaged using chemiluminescent detection on the Molecular Imager® Gel Doc™ XR+ System (Bio-Rad). Quantification of intact protein was determined by densitometry using ImageLab (BioRad). For all analysis methods the relative concentration of the polypeptide at each time point (if detected) was plotted overtime and fit to an exponential curve to calculate the intact half-life.
(§3) Specifically, the t=0 (enzyme-free control) and t=2 min samples from the SGF digest were analyzed for intact protein as described by chip electrophoresis, SDS-PAGE, western blot, and/or LC-MS/MS. Relative quantities of polypeptides at each time point were determined and the percentage of intact protein remaining at t=2 was determined.
For data set [2] the following is noted: rat, in vivo, po.
Method: (§4) Rat pharmacokinetic studies. Male Sprague Dawley rats with indwelling jugular vein cannula (JVC) were purchased from Harlan Laboratories and acclimated to the Test Facility (Agilux Laboratories) for at least two days prior to study initiation. Prior to dose administration animals were fasted overnight (11-13 h) and remained fasted until completion of the study. Test articles were orally administered via a bulb-tipped 18 gauge stainless steel gavage needle attached to a syringe. The weight of all dose syringes were recorded prior to and following dosing to more accurately determine the amount of solution dosed. Serial blood samples (˜300 μL) were collected from the JVC at time 0 (pre-dose) and 0.25, 0.5, 1, 2, and 4 h post-dose. Blood samples were collected into tubes containing the anti-coagulant K2EDTA, a general protease inhibitor cocktail (Sigma P8340, diluted 1:100 in whole blood), and a DPP IV inhibitor (Millipore DPP4, diluted 1:100 in whole blood). Immediately following blood collection tubes were vortexed and stored on wet ice until processing to plasma by centrifugation (3,500 rpm at 5° C.) within 1 h of collection. Plasma samples were then transferred into new tubes and stored at −80° C.
(§5) The concentration of Glu, Ser, His, Gly, Thr, Arg, Ala, Tyr, Val, Met, Phe, Ile, Leu, and Lys in the plasma samples was determined by HPLC amino acid analysis, as described herein. Prior to HPLC amino acid analysis, insoluble particles were removed from plasma samples by centrifugation (1100×g at 4° C.) for 10 min. A 25 μL sample of the soluble fraction was then transferred to a 96-well plate, for some samples an internal standard (Norvaline, Agilent) was added to each plasma sample at final concentration of 0.5 mM.
For data set [3] the following is noted: rat, in vivo.
Method: A rat pharmacokinetic study with oral administration of native and modified forms of SEQID-00363 was performed as described herein. The indigestible marker Cobalt-EDTA was formulated at 50 mg/L in the dosed protein solutions to monitor differences in intestinal transit rate between treatment groups and individual rats. Following the final blood collection (at t=4 h) rats were euthanized and the terminal ileum (20 cm of small intestine prior to the cecum) and its contents (the digesta) were collected into a pre-weighed tube. The ileum was flushed with saline and pooled with the digesta. The pH of the digesta was adjusted to ˜3.0 with HCl in order to inactivate all enzymes. The ileum samples were placed into separate pre-weighed 15 mL conical tubes. All samples were flash frozen in liquid nitrogen, and stored at −80° C. until further analysis. Individual ileum and ileum content weights were calculated and recorded for each sample.
A sample of the digesta, which exists as a heterogenous solution containing insoluble particles, was used in the Coomassie Plus Protein Assay, as described herein, to determine protein concentration.
Data set [4] in a line: Solubility of proteins (lyophilized/reconstituted or ultrafiltered). Conditions: produced in E. coli unless otherwise noted.
The nature of data set [5]: Intact half-life during simulated gastric fluid (SGF) digestion. To be noted: SGF pH 1.5, pepsin:polypeptide 1:20 w/w, 37° C.; produced in E. coli unless otherwise noted.
Method: as §1, §2, §3
Data set [6] is described as follows: Pancreatin-based in vitro digestion, free amino acids by RP-HPLC. Conditions: after 120 min SGF, Pancreatin SIF pH 6.5.
Method: In this method, pancreatin, a mixture of enzymes, is used to simulate intestinal proteases. Specifically, the digestion of polypeptides into amino acids was analyzed by an in vitro Pancreatin-based digestion assay followed by free amino acid analysis using reversed phase HPLC (RP-HPLC). The nutritive polypeptide was added to SGF (0.92 g/L Pepsin (Sigma), 0.03 M NaCl titrated with HCl to pH 1.5) at a final concentration of 4 g/L and incubated at 37° C. for 120 min. After 120 min, Na2CO3 was added to a final concentration of 16 mM to quench the pepsin reaction. […] Time points were sampled from the reaction and quenched by heating to 95° C. for 5 min. Control samples were protease-free.
Analyses were performed using an Agilent 1100 series system. Primary amino acids were derivitized pre-column at room temperature, online, using o-phthalaldehyde (OPA). The OPA-derivatives were separated using the Zorbax Eclipse-AAA 4.6×150 mm, 3.5 μm column at 40° C. The separation gradient transitioned from 100% 40 mM Na2HPO4 pH 7.8 to 65% acetonitrile/methanol/water mixture (45/45/10) over 23 minutes. Analytes were detected by fluorescence at 340 nm Ex/450 nm Em.
Data set [7] can be described thus: Oral pharmacokinetics in humans, plasma amino acid concentrations. Set-up: species or system human. Conditions: in vivo. How it is done:
The anabolic response to protein ingestion is predicated on the delivery of essential amino acids. The purpose of this study was to examine the changes in plasma amino acid concentrations in response to various proteins over a period of 240 minutes. […] Subjects were fasted overnight (>8 hrs) before oral pharmacokinetic study. […] Plasma amino acid concentrations were quantified by Quest Diagnostics or Laboratory Corporation of America. […] FIGS. 64-67 show the plasma time course of each measured amino acid and the aggregate groups, essential amino acids (EAA), branched chain amino acids (BCAA), and total amino acids (TAA), for WPI and SEQID-105. […] Subjects were fasted overnight (>8 hrs) before oral pharmacokinetic study. […] Plasma amino acid concentrations were quantified by Quest Diagnostics or Laboratory Corporation of America. The purpose of this study was to examine the changes in plasma amino acid concentrations in response to a methionine deficient nutritive protein over a period of 240 minutes. […] Plasma amino acid concentrations were quantified by Quest Diagnostics or Laboratory Corporation of America.

Data set [8] can be described thus: Rat pharmacokinetic studies, plasma amino acids by HPLC. Conditions: oral administration to rats, doses of Table E33A.
Method: as §4, §5

Like-named read-outs stand apart in the source and are kept apart here.

B1: Deglycosylated SEQID-00363: SEQID-00363 with mannose glycans enzymatically reduced (protein)
chain: ATLDSWLSNEATVARTAILNNIGADGAWVSGADSGIVVASPSTDNPDYFYTWTRDSGLVLKTLVDLFRNGDTSLLSTIENYISAQAIVQGISNPSGDLSSGAGLGEPKFNVDETAYTGSWGRPQRDGPALRATAMIGFGQWLLDNGYTSTATDIVWPLVRNDLSYVAQYWNQTGYDLWEEVNGSSFFTIAVQHRALVEGSAFATAVGSSCSWCDSQAPEILCYLQSFWTGSFILANFDSSRSGKDANTLLGSIHTFDPEAACDDSTFQPCSPRALANHKEVVDSFRSIYTLNDGLSDSEAVAVGRYPEDTYYNGNPWFLCTLAAAEQLYDALYQWDKQGSLEVTDVSLDFFKALYSDAATGTYSSSSSTYSSIVDAVKTFADGFVSIVETHAASNGSMSEQYDKSDGEQLSARDLTWSYAALLTANNRRNSVVPASWGETSASSVPGTCAATSAIGTYSSVTVTSWPSIVATGGTTTTATPTGSGSVTSTSKTTATASKTSTSTSSTSCTTPTAVAVTFDLTATTTYGENIYLVGSISQLGDWETSDGIALSADKYTSSDPLWYVTVTLPAGESFEYKFIRIESDDSVEWESDPNREYTVPQACGTSTATVTDTWR
modifications: deglycosylated; Aspergillus niger
Regarding B1, the “SGF Half-life (t½)” value in data set [1] is 4.3 min. Besides, the “bioavailability of amino acids (plasma free amino acids over 4 h)” value in data set [2] was “did not increase the bioavailability of Leucine or EAAs, it did increase the bioavailability of Serine and Threonine”. In addition, in data set [3], the “total protein mass in digesta samples” value is on record as 7.7 mg.

B2: SEQID-00429: nutritive polypeptide (protein, listed as Bacillus licheniformis)
chain: ANLKGTLMQYFEWYMPNDGQHWKRLQNDSAYLAEHGITAVWIPPAYKGTSQADVGYGAYDLYDLGEFHQKGTVRTKYGTKGELQSAIKSLHSRDINVYGDVVINHKGGADATEDVTAVEVDPADRNRVISGEHRIKAWTHFHFPGRGSTYSDFKWHWYHFDGTDWDESRKLNRIYKFQGKAWDWEVSNENGNYDYLMYADIDYDHPDVAAEIKRWGTWYANELQLDGFRLDAVKHIKFSFLRDWVNHVREKTGKEMFTVAEYWQNDLGALENYLNKTNFNHSVFDVPLHYQFHAASTQGGGYDMRKLLNGTVVSKHPLKAVTFVDNHDTQPGQSLESTVQTWFKPLAYAFILTRESGYPQVFYGDMYGTKGDSQREIPALKHKIEPILKARKQYAYGAQHDYFDHHDIVGWTREGDSSVANSGLAALITDGPGGAKRMYVGRQNAGETWHDITGNRSEPVVINSEGWGEFHVNGGSVSIYVQR
What is called Solubility is how much of the substance goes into solution per volume. Lower therefore signals little dissolved substance. With B2, the “Solubility” value in data set [4] is 214 mg/mL. Further, the “SGF Half-life (t½)” value in data set [5] was 5 min. Further, in data set [6], the “Free Leu (μM) at 120 min time point of Pancreatin digest” value is 580.7 µM.

B3: SEQID-00426: methionine deficient nutritive protein (protein, listed as Thermomyces lanuginosus)
chain: EVSQDLFNQFNLFAQYSAAAYCGKNNDAPAGTNITCTGNACPEVEKADATFLYSFEDSGVGDVTGFLALDNTNKLIVLSFRGSRSIENWIGNLNFDLKEINDICSGCRGHDGFTSSWRSVADTLRQKVEDAVREHPDYRVVFTGHSLGGALATVAGADLRGNGYDIDVFSYGAPRVGNRAFAEFLTVQTGGTLYRITHTNDIVPRLPPREFGYSHSSPEYWIKSGTLVPVTRNDIVKIEGIDATGGNNQPNIPDIPAHLWYFGLIGTCL
B3: the “SGF Half-life (t½)” value in data set [1] (pH 1.5) is on record as 0.3 min. Besides, the “change in AUC0-4 h for plasma Lys” value in data set [2] is on record as “did not alter the change in AUC0-4 h for plasma Lys”. Besides, in data set [7], the “plasma EAA time course vs basal, Dunnett multiple comparison test” value was “plasma EAA levels at the 30 and 60 min. time points are significantly different from the basal levels at time 0 min”; the “plasma Methionine over time” value was “Methionine shows no significant change over time”; the “plasma amino acid levels across time, 1-way ANOVA” value was “significant differences across time for Glu and EAA”.

B4: SEQID-00352: nutritive polypeptide naturally produced in Corn, recombinantly expressed in E. coli (protein)
chain: MATKRSVGTLGEADLKGKKVFVRADLNVPLDDAQKITDDTRIRASVPTIKFLLEKGAKVILASHLGRPKGVTPKYSLKPLVPRLSELLGVEVVMANDCIGEEVEKLAAALPEGGVLLLENVRFYKEEEKNEPEFAKKLASVADLYVNDAFGTAHRAHASTEGVTKYLKPAVAGFLMQKELDYLVGAVANPKKPFAAIVGGSKVSTKIGVIESLLAKVDILILGGGMIYTFYKAQGYSVGKSLVEEDKLELATSLIEKAKAKGVSLLLPTDIVVADKFAADAESKIVPATAIPDDWMGLDVGPDATKTFDEALDTTKTVIWNGPMGVFEFQKFAAGTEAIAKKLAELTTTKGVTTIIGGGDSVAAVEKAGLADKMSHISTGGGASLELLEGKTLPGVLALDDA
modifications: Zea mays
On to B4, for which the “Solubility” value in data set [4] is 223 mg/mL. In data set [8], the “change in AUC0-4 h for plasma Lys” value is “increased the change in AUC0-4 h for plasma Lys”. For the same molecule, in data set [5], the “SGF Half-life (t½)” value was 0.2 min. The “Free Leu (μM) at 120 min time point of Pancreatin digest” value in data set [6] is 906.1 µM.
